Test results taken from patent US20100279937A1, “Method of Inhibiting Angiogenesis, Tumorigenesis and Cathepsin Activity” (priority 2006, published 2010).
Values belong to the molecule of their own block, whether it stands above or below them.

Key:
U87MG cells [1] = assay: U87MG growth in semi-solid (soft) agar; type: cell-based, human; details: Alamar Blue
Method: […] Approximately 15,000 cells±treatment were resuspended in 150 μl medium containing 0.3% agar, and seeded onto a well of a 24-well plate previously layered with 250 μl 0.6% agar. The solidified cell layer was covered with 50 μl DME±treatment which was replaced every three days over a 21 day period. Phase contrast images (6 fields/well) were captured using a digital video camera (Olympus U-CMT) and analyzed with Northern Eclipse v.5.0 software. Color images were transformed to grey scale, thresholded, and then converted to binary images. Number and area of colonies per field were calculated. In order to measure cell viability, at the end of the experiment, 40 μl alamar blue was added to each well and fluorescence readings were performed every 10 min for a period of 180 min. Experiments were repeated 2-3 times in triplicates.

[2] = test system: human brain endothelial cells (HBEC); details: disclosed in copending PCT/CA2006/000250; cited from earlier work
U87MG cells on CAM = assay: Experimental glioma assay: U87MG tumors on chick chorioallantoic membrane (CAM); type: in vivo, chicken (Gallus gallus)
Method: Fertilized chicken (Gallus gallus) eggs were obtained from the Canadian Food Inspection Agency and placed into an egg incubator at 37° C. and 67-70% humidity (day 0). At day 3, windows were cut in the egg shell and covered with surgical tape (Durapore,) until day 10. Then, a sterile Nunc Thermanox (Nunc Inc., Naperville, Ill.) plastic ring was placed onto the CAM, the delimited surface gently lacerated with a scalpel blade and a pellet of 10^6 U87MG cells deposited into the center of the ring. […] Digital photos were taken using a Canon 40D camera. At day 17, tumors were carefully removed from the CAM and weighted.

[3] = test system: human brain endothelial cells (HBEC); assay: Confocal microscopy of AF647-CIBP-4 in HBEC; type: cell-based; details: 100 nM AF647 conjugate, 90 min
Method: 80 μl of 1 mM Alexa Fluor 647-NHS in DMSO was added to 0.4 ml of recombinant CIBP-4 (0.2 mg/ml) in 100 mM carbonate pH 8.4, and sample was incubated overnight at room temperature. The reaction was stopped with 150 μl of 200 mM ethanolamine pH 8.0. To remove free dye, sample was diluted with 4.5 ml of water and loaded onto 1 ml Co^+2-Talon Metal Affinity column equilibrated with PBS. The column was exhaustively washed with PBS and CIBP-4 eluted with 2 ml of 1 M imidazole in PBS. To remove imidazole from AF647-CIBP-4 conjugate, the sample was concentrated to approximately 200 μl on Biomax (M.W. cut-off 5,000), diluted to original volume with PBS and concentrated again. That process of concentration/dilution was repeated three times. Final volume 0.5 ml (0.14 mg/ml). Recovery 86%.
HBEC (100,000 cell/well in a 24-well format plate) and U87MG (50,000) were respectively seeded on human fibronectin- (40 μg/ml) or poly-L-lysine-coated cover slips (Bellco Biotechnology) in 400 μl HBEC/U87MG media and grown until reached 80% confluence. Cells were then washed twice with DME and incubated in DME for 30 min at 37° C. […] Confocal images of […] were sequentially obtained using 488, 647 and 540-590 nm excitation laser lines to detect DiOC5(3) (510-525 nm emission) and Alexa 647 (670-810 nm emission) and Magic Red™ Cathepsin B (>610 nm) fluorescence.

[4] = test system: human brain endothelial cells (HBEC); assay: Capillary-like tube (CLT) formation by HBEC on Matrigel (in vitro angiogenesis); type: cell-based; details: 20 nM
Method: Human brain endothelial cells (HBEC) were obtained from small intracortical microvessels and capillaries (20-112 μm) harvested from temporal cortex from patients treated surgically for idiopathic epilepsy. Tissues were obtained with approval from the Institutional Research Ethics Committee. HBEC were separated from smooth muscle cells with cloning rings and grown at 37° C. in HBEC media containing Earle's salts, 25 mM 4-(2-hydroxyethyl)-1-piperazineethanesulfonic acid (HEPES), 4.35 g/L sodium bicarbonate, and 3 mM L-glutamine, 10% FBS, 5% human serum, 20% of media conditioned by murine melanoma cells (mouse melanoma, Cloudman S91, clone M-3, melanin-producing cells), 5 μg/ml insulin, […], 5 ng/ml selenium, and 10 μg/ml endothelial cell growth supplement. HBEC cultures were routinely characterized morphologically and biochemically.
(§1) In vitro angiogenesis was assessed by endothelial tube formation in growth factor reduced Matrigel™ (BD Bioscience, Bedford, Mass.). 24-well plates were coated with 300 μl of unpolymerized Matrigel™ (5-7 mg prot/ml) and allowed to polymerize for 90 min at 37° C. HBEC (40,000 cells) were suspended in 500 μl of either DME, serum-free U87MG CM (collected as described in Cell Cultures) or growth factors (VEGF, IGF-1, bFGF) in the absence or presence of 20 nM of either full length recombinant IGFBP-1 (IBP1, produced at BRI-NRC), IGFBP-2 (IBP2, produced at BRI-NRC and purchased from R&D systems, Minneapolis), IGFBP-3 (IBP3, from R&D systems), IGFBP-4 (IBP4, produced at BRI-NRC), IGFBP-5 (IBP5, produced at BRI-NRC and purchased from R&D systems) and IGFBP-6 (IBP6, from R&D systems) or the C-terminal protein fragments of IGFP-1 (CIBP1), IGFBP-2 (CIBP2), IGFBP-4 (CIBP4), IGFBP-5 (CIBP5) and IGFBP-6 (CIBP6), all produced at BRI-NRC). The ability of a synthetic membrane permeable cathepsin B inhibitor (CA074-ME, EMD Biosciences, Canada) to inhibit angiogenes and cathepsin B activity was also studied. CLT formation was analyzed after 24 h using an Olympus 1×50 microscope. Phase contrast images were captured with a digital video camera (Olympus U-CMT) and analyzed using Northern Eclipse v.5.0 software. Experiments were repeated three times. In order to determine the levels of cathepsin B activity in each experimental condition, at the end of the experiment, 6 μl of 26× Magic Red™ Cathepsin B reagent (Immunochemistry Technologies, LLC) were added to all the wells and maintained at 37° C. in dark for two hours. Cells were washed twice with HBSS and intracellular fluorescence quantification (530/25 nm excitation and 645/40 nm emission) was performed using a cytofluorimeter plate reader (Bio-Tek FL600).

U87MG cells [5] = details: disclosed in copending PCT/CA2006/000250; cited from earlier work
cathepsin B = target: T1, cathepsin B (Homo sapiens, UniProt P07858); assay: Intracellular cathepsin B activity in HBEC seeded on Matrigel (Magic Red); type: cell-based; details: 20 nM
T1 construct: Levels of cathepsin B activity were also measured in U87MG CM alone or pre-incubated; endogenous in cells; host or cells: U87MG (ATCC), 3-day serum-free conditioned medium
Method: as §1
To determine the ability of these angiogenic factors to stimulate cathepsin B activity in HBEC, a membrane permeable cathepsin B target sequence peptide (Arginine-Arginine) linked to an amide substituted fluorophore, cresyl violet (Magic Red™, Immunochemistry Technologies, LLC) was used. Following enzyme cleavage at the arginine amide linkage site, the cresyl violet fluorophore generates red fluorescence when excited at 550-590 nm.

Molecule: CCCC(=O)Nc1ncnc2c1ncn2[C@@H]1O[C@@H]2COP(=O)(O)O[C@H]2[C@H]1OC(=O)CCC [dB-cAMP, dybutyril cAMP, reference compound]
- inhibition of U87MG colony formation in soft agar (efficacy) (U87MG cells [1]; 500 μg/ml dB-cAMP, positive control): ~65%

B1: CIBP4: IGFBP-4 C-terminal fragment (aas 157-258, SEQ ID No. 6) with StreptagII-octahistidine tag (protein)
chain: MLLLLLLLGLRLQLSLGIASKVNGAPREDARPVPQGSCQSELHRALERLAASQSRTHEDLYIIPIPNCDRNGNFHPKQCHPALDGQRGKCWCVDRKTGVKLPGGLEPKGELDCHQLADSFREVDPWSHPQFEKTGHHHHHHHHGGQ
modifications: StreptagII-octahistidine tag; C-terminal fragment of IGFBP-4
- inhibition of angiogenic response induced by U87MG conditioned media and growth factors (bFGF, VEGF, IGF-1) [2]: can inhibit angiogenic response
- average size of the tumors in each weight interval vs vehicle (U87MG cells on CAM; CAM): similar
- increase in small size tumors (0-15 mg) vs vehicle (U87MG cells on CAM; CAM): three-fold
- reduction in number of large size tumors (20-36 mg) vs vehicle (U87MG cells on CAM; CAM): 3 fold
- shift of tumor weight frequency distribution towards smaller tumors vs vehicle (U87MG cells on CAM; CAM, intervals 0-15, 15-20, 20-36 mg): ~3 fold
- reduction of growth of U87MG cells on CAM (tumor weight) vs vehicle (U87MG cells on CAM; CIBP4 250 ng/ml as printed, applied days 11-14, weighed day 17, p<0.005): 20-25%
- inhibition of U87MG colony formation in soft agar (efficacy) (U87MG cells [1]; 20 nM): ~50%
- co-localization with lysosomes (Lysotracker) in HBEC [3]: Co-localization
- inhibition of angiogenesis (CLT formation by HBEC in Matrigel) ([4]; stimuli U87MG CM, VEGF, IGF-1, bFGF, overnight): reduction in CLT formation
- reduction of U87MG colony formation in soft agar (U87MG cells [5]): able to reduce U87MG colony formation

B2: CIBP1: IGFBP-1 C-terminal domain (aa 170-259, SEQ ID No. 2) with octahistidine tag (protein)
chain: MGELLLLLLLGLRLQLSLGIASKKWKEPCRIELYRVVESLAKAQETSGEEISKFYLPNCNKNGFYHSRQCETSMDGEAGLCWCVYPWNGKRIPGSPEIRGDPNCQIYFNVQASSGSSTGHHHHHHHHG
modifications: octahistidine tag; C-terminal fragment of IGFBP-1
- inhibition of U87MG colony formation in soft agar (efficacy) (U87MG cells [1]; 20 nM): ~25%

B3: IGFBP-4: recombinant full-length IGFBP-4 (SEQ ID No. 5) with StreptagII-octahistidine tag (protein)
chain: MLPLCLVAALLLAAGPGPSLGDEAIHCPPCSEEKLARCRPPVGCEELVREPGCGCCATCALGLGMPCGVYTPRCGSGLRCYPPRGVEKPLHTLMHGQGVCMELAEIEAIQESLQPSDKDEGDHPNNSFSPCSAHDRRCLQKHFAKIRDRSTSGGKMKVNGAPREDARPVPQGSCQSELHRALERLAASQSRTHEDLYIIPIPNCDRNGNFHPKQCHPALDGQRGKCWCVDRKTGVKLPGGLEPKGELDCHQLADSFREVDPWSHPQFEKTGHHHHHHHHGGQ
modifications: StreptagII-octahistidine tag; human
- reduction of U87MG colony formation in soft agar (U87MG cells [5]): able to reduce U87MG colony formation

- inhibition of intracellular cathepsin B activity induced by IGF-1 (cathepsin B; IGF-1 (150 ng/ml)): completely inhibit
- inhibition of intracellular cathepsin B activity induced by U87MG CM (cathepsin B; U87MG CM): did not inhibit
- inhibition of intracellular cathepsin B activity induced by VEGF (cathepsin B; VEGF (20 ng/ml)): completely inhibit
- inhibition of intracellular cathepsin B activity induced by bFGF (cathepsin B; bFGF (20 ng/ml)): did not inhibit
B4: IBP2: recombinant full-length IGFBP-2 (aas 1-328, SEQ ID No. 3); produced at BRI-NRC and purchased from R&D systems (protein)
chain: MLPRVGCPALPLPPPPLLPLLPLLLLLLGASGGGGGARAEVLFRCPPCTPERLAACGPPPVAPPAAVAAVAGGARMPCAELVREPGCGCCSVCARLEGEACGVYTPRCGQGLRCYPHPGSELPLQALVMGEGTCEKRRDAEYGASPEQVADNGDDHSEGGLVENHVDSTMNMLGGGGSAGRKPLKSGMKELAVFREKVTEQHRQMGKGGKHHLGLEEPKKLRPPPARTPCQQELDQVLERISTMRLPDERGPLEHLYSLHIPNCDKHGLYNLKQCKMSLNGQRGECWCVNPNTGKLIQGAPTIRGDPECHLFYNEQQEARGVHTQRMQGSGWSHPQFEKTGHHHHHHHHGGQ
modifications: human
notes: produced at BRI-NRC and purchased from R&D systems
- inhibition of angiogenic response induced by IGF-1 ([4]; HBEC on Matrigel, IGF-1 (150 ng/ml)): completely inhibit
- inhibition of angiogenic response induced by U87MG CM ([4]; HBEC on Matrigel, U87MG CM): did not inhibit
- inhibition of angiogenic response induced by VEGF ([4]; HBEC on Matrigel, VEGF (20 ng/ml)): completely inhibit
- inhibition of angiogenic response induced by bFGF ([4]; HBEC on Matrigel, bFGF (20 ng/ml)): did not inhibit

B5: CIBP6: IGFBP-6 C-terminal fragment (aas 151-240, SEQ ID No. 10) with octahistidine tag (protein)
chain: MGELLLLLLLGLRLQLSLGIARNSAGVQDTEMGPCRRHLDSVLQQLQTEVYRGAQTLYVPNCDHRGFYRKRQCRSSQGQRRGPCWCVDRMGKSLPGSPDGNGSSSCPTGSSGSSTGHHHHHHHHG
modifications: octahistidine tag; C-terminal fragment of IGFBP-6
- inhibition of U87MG colony formation in soft agar (efficacy) (U87MG cells [1]; 20 nM): ~25%
